This test concerns the target ButCD complex of B. fragilis GS077 (B. fragilis GS077 (endogenous)). The test is described as follows: cryo-EM structure.

The values that follow come from PMC11467351.

The term stoichiometry N denotes the number of molecules, sites or subunits per partner or assembly. ButCD complex of B. fragilis GS077 gave a stoichiometry N of 2.
